Data from patent US20150239980A1 (NEOTOPE BOSCIENCES, published 2015).

Columns and labels:
recombinant hMCAM-His [1] = biological target: T1, recombinant hMCAM-His (human, UniProt P43121 24-559); assay: ForteBio Octet Red, hMCAM-His analyte; Forte column 1; vs rodent 1749
T1 construct: not shown: His tag
T1 chain: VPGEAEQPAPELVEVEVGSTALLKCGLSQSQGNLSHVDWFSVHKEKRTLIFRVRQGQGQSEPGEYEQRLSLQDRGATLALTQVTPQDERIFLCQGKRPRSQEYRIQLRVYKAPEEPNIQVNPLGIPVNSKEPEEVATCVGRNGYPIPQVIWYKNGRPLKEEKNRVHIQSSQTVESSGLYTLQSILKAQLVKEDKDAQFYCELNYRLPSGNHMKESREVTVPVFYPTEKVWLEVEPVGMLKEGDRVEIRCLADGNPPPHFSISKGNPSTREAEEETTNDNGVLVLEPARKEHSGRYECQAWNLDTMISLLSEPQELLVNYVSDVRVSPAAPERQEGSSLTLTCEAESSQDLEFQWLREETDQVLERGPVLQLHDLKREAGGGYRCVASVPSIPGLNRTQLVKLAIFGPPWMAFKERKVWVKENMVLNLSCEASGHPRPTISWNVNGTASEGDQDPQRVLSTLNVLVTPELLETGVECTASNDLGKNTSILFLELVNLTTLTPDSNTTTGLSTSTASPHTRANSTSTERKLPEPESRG
Description: (§1) The affinities were measured using the ForteBio Octet Red. Anti-human Fc sensors were used to capture the humanized antibodies, and several concentrations of hMCAMHis analyte were used to determine the affinity using a 1:1 fitting model.

[2] = biological target: T2, human MCAM (melanoma cell adhesion molecule) expressed on transfected CHO cells (human, UniProt P43121 24-646); assay: laminin/FACS on hMCAM CHO cells, competitor laminin 411; Expt#1; vs rodent 1749
T2 construct: also called hMCAM; CD146
T2 chain: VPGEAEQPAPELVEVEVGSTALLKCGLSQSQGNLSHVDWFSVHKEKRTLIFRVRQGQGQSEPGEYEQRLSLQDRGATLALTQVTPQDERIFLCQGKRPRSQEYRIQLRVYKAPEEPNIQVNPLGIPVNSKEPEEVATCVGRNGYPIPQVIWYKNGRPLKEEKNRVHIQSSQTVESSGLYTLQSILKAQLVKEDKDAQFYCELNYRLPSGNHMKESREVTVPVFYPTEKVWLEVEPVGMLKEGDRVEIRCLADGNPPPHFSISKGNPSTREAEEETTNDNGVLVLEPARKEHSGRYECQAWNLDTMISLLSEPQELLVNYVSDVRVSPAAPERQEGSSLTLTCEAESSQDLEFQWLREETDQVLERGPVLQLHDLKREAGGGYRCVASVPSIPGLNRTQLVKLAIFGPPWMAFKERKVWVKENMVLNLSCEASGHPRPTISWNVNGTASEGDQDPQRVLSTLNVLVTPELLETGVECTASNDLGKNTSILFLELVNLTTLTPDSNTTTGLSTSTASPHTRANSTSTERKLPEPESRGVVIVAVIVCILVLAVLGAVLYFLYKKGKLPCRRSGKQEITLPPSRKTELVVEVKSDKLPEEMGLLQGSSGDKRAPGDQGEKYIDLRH
Description: (§2) Following incubation for 30-45 minutes, the cells were washed and anti-laminin conjugated to AF650 (NovusBio) was added to detect the bound laminin. The cells were run on a flow cytometer to measure the laminin binding signal.

recombinant hMCAM-His [3] = biological target: T1, recombinant hMCAM-His; assay: ForteBio Octet Red, hMCAM-His analyte; Expt. #1; vs rodent 1749
Description: as §1

[4] = biological target: T2, human MCAM (melanoma cell adhesion …); assay: laminin/FACS on hMCAM CHO cells, competitor laminin 411; Expt#2; vs rodent 1749
Description: as §2

recombinant hMCAM-His [5] = biological target: T1, recombinant hMCAM-His; assay: ForteBio Octet Red, hMCAM-His analyte; Expt. #2; vs rodent 1749
Description: as §1

recombinant hMCAM-His [6] = biological target: T1, recombinant hMCAM-His; assay: competitive ELISA on hMCAM-His, competitor biotinylated rodent or chimeric 1749; vs rodent 1749
[7] = biological target: T3, human MCAM domain 3 (amino acids 244-321), Fc-tagged (human, UniProt P43121 244-321); assay: ForteBio domain mapping as in Example 8
T3 construct: also called domain 3 of the human MCAM protein
T3 sequence: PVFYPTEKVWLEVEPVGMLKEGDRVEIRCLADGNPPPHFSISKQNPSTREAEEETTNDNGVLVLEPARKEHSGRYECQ

[8] = biological target: T4, human MCAM domain 1 (amino acids 19-129), Fc-tagged (human, UniProt P43121 19-129); assay: ForteBio domain mapping as in Example 8
T4 construct: also called MCAM Fc domain 1
T4 sequence: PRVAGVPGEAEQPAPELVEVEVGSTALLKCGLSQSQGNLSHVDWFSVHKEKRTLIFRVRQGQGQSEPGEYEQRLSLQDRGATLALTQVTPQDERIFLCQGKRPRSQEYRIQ

[9] = biological target: T5, Recombinant human Fc-tagged MCAM IgG1-2A (human MCAM domains 1 and 2, amino acids 19-242) (human, UniProt P43121 19-242); assay: ForteBio domain mapping as in Example 8
T5 construct: also called human MCAM IgG1-2A; MCAM Fc domains 1 and 2; not shown: human Fc tag
T5 sequence: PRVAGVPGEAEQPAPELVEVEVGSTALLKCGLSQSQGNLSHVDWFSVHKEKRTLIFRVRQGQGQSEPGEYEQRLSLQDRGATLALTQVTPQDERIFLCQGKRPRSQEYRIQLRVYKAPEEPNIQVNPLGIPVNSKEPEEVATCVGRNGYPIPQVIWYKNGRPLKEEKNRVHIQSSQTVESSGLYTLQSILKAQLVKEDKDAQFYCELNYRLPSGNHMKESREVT

[10] = biological target: T6, human MCAM domain 2 (amino acids 139-242), Fc-tagged (human, UniProt P43121 139-242); assay: ForteBio domain mapping as in Example 8
T6 sequence: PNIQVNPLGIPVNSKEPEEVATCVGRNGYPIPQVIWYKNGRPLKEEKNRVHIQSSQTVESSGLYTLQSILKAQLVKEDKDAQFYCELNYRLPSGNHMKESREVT

fold over rodent (Forte affinity) (recombinant hMCAM-His [1]): 1 fold
fold over rodent (blocking, laminin/FACS) [2]: 1 fold
fold over rodent (Forte affinity) (recombinant hMCAM-His [3]): 1 fold
fold over rodent (blocking, laminin/FACS) [4]: 1 fold
fold over rodent (Forte affinity) (recombinant hMCAM-His [5]): 1 fold
fold over rodent (competitive ELISA) (recombinant hMCAM-His [6]): 1 fold
binding result [7]: binds
binding result [8]: no binding
binding result [9]: no binding
binding result [10]: no binding
B1: mouse anti-human MCAM monoclonal antibody clone 1749.1.3 (antibody, V domains shown)
VH: DVKLVESGGDLVKPGGSLKLSCAASGFTFSSYIMSWVRQTPEKRLEWVATISSGGSSTYYPDSVKGRFTISRDNAKNTLYLQMSSLKSEDTAMYYCTRDDDYDVKVFAYWGQGTLVTVSA
VL: DIVMSQSPSSLAVSAGEKVTMNCKSSRSLLNSRIRKNYLAWYQQKPGQSPKLLIYWASTRESGVPDRFTGSGSGTDFTLTISSVQAEDLAVYYCKQSYNLLTFGAGTKLELK
notes: mouse hybridoma antibody; also called rodent 1749; murine 1749.1.3 anti-MCAM antibody
